From patent US20080044423A1 (AstraZeneca / MedImmune, published 2008)
Where two headings read alike, the source gives them in different places.

How the values were obtained:
TINA1 IgG = experiment: DELFIA epitope competition vs biotinylated human IL-17A on immobilised IgG
TINA10 IgG = experiment: as above
TINA51 IgG = experiment: as above
[1] = target: T1, human IL-17A, untagged, E. coli derived (in house or Peprotech) (human, UniProt Q16552 24-155); experiment: cell-based or functional assay
[2] = target: T1, human IL-17A, untagged, E. coli derived …; experiment: cell-based or functional assay; remark: listed apart in the source
[3] = target: T1, human IL-17A, untagged, E. coli derived …; experiment: cell-based or functional assay; remark: listed apart in the source
[4] = target: T2, human IL-17A derived from the HEK-EBNA expression system (human, UniProt Q16552 24-155); experiment: estimated from pA2 (Schild) analysis in the HT1080 IL-6 release assay
T2 construct: used in HT1080 assays; also called HEK EBNA expressed human IL-17A; IL-17A In-house (HEK EBNA)

[5] = target: T1, human IL-17A, untagged, E. coli derived …; experiment: cell-based or functional assay; remark: listed apart in the source
[6] = target: T1, human IL-17A, untagged, E. coli derived …; experiment: SPR BIAcore 2000; IgG1 amine-coupled on CM3, IL-17A 0.78-50 nM as analyte; Bivalent Analyte fit (kd1/ka1)
cynomolgus IL-17A [7] = target: T3, cynomolgus IL-17A (cynomolgus, UniProt Q16552 24-155 (human entry), limits assumed); experiment: as above
T3 construct: in house, E. coli derived (HEK EBNA derived in some HT1080 assays); also called Cyno IL-17A; Cyno IL-17
T3 chain: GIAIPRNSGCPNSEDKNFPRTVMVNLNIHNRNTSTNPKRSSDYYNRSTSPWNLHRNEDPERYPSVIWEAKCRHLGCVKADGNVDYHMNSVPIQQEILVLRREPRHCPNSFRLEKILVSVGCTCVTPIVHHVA

cynomolgus IL-17A [8] = target: T3, cynomolgus IL-17A; experiment: cell-based or functional assay
[9] = target: T2, human IL-17A derived from the HEK-EBNA …; experiment: cell-based or functional assay
[10] = target: T4, Human IL-17A-Flag-His10 (HEK) (human, UniProt Q16552 24-155); experiment: SPR BIAcore 2000; IgG1 amine-coupled on CM3, IL-17A 0.78-50 nM as analyte; 1:1 Langmuir fit
T4 construct: may be the same protein as the HIS FLAG IL-17A; not shown: Flag-His10 tag

[11] = target: T1, human IL-17A, untagged, E. coli derived …; experiment: as above
cynomolgus IL-17A [12] = target: T3, cynomolgus IL-17A; experiment: as above
[13] = target: T5, HIS FLAG tagged human IL-17A (in house HEK EBNA derived) (human, UniProt Q16552 24-155); experiment: HTRF receptor-ligand assay: inhibition of HIS FLAG IL-17A binding IL-17RA Fc
T5 construct: glycosylated, from HEK EBNA cells; also called HIS FLAG IL-17A; HIS FLAG human IL-17A; not shown: HIS FLAG tag

[14] = target: T5, HIS FLAG tagged human IL-17A (in house …); experiment: as above; remark: listed apart in the source

B1: murine IL-17A (R & D Systems) (ligand, UniProt Q62386 22-158, looked up)
chain: TVKAAAIIPQSSACPNTEAKDFLQNVKVNLKVFNSLGAKVSSRRPSDYLNRSTSPWTLHRNEDPDRYPSVIWEAQCRHQRCVNAEGKLDHHMNSVLIQQEILVLKREPESCPFTFRVEKMLVGVGCTCVASIVRQAA
TINA1 IgG
  Fold difference from Human IL-17A: 12 fold
  IC50: 98 nM
TINA10 IgG
  % (printed in the IC50 column, presumably inhibition): 50%
TINA51 IgG
  Fold difference from Human IL-17A: 0.7 fold
  IC50: 35 nM

B2: Antibody 7 IgG1 (antibody, V domains shown)
VH: not shown
VL: NFMLTQPHSVSESPGKTVTISCTRSSGSLANYYVQWYQQRPGSSPTIVIFANNQRPSGVPDRFSGSIDSSSNSASLTISGLKTEDEADYYCQTYDPYSVVFGGGTKLTVL
notes: human IgG1, lambda; constant regions not in the listing; also called Antibody 07
[1]
  cartilage explant synergised IL-6 response, Mean IC50: 0.61 nM
[2]
  RA synovial fibroblast IL-8, Mean IC50 versus IL-17A (1 nM) and TNFα (0.1 ng/ml): 4.97 nM
  RA synovial fibroblast IL-8, Mean IC50 versus IL-17A (2 nM): 2.85 nM
[3]
  chondrocyte IL-8 release, geometric mean IC50 at 2 nM IL-17A: 1.3 nM
[4]
  Kd: 0.553 nM
[5]
  chondrocyte IL-8 release, geometric mean IC50 at 2 nM IL-17A: 1.6 nM
[6]
  Kd: 2.1 nM
Cynomolgus IL-17A [7]
  Kd: 1.34 nM
Cynomolgus IL-17A [8]
  HT1080 IL-6 release, IgG IC50: 5 nM
  HT1080 IL-6 release, IgG geometric mean IC50 (n = 12): 4.8 nM
[9]
  HT1080 IL-6 release, IgG IC50: 0.7 nM
  HT1080 IL-6 release, IgG geometric mean IC50 (n = 15): 0.8 nM
[10]
  Kd: 0.171 nM
[11]
  Kd: 0.195 nM
Cynomolgus IL-17A [12]
  Kd: 0.512 nM

B3: Antibody 1 scFv (scFv, V domains shown)
VH: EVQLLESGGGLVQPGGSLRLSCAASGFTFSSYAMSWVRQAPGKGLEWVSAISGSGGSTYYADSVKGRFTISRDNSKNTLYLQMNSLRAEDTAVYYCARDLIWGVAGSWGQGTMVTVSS
VL: NFMLTQPHSVSESPGKTVTISCTRSSGSLANYYVQWYQQRPGSAPTIVIFANNQRPSGVPDRFSGSIDSSSNSASLTISRLKTEDEADYYCQSYDDSSVVFGGGTKLTVL
notes: scFv (one chain); also called TINA12
[13]
  IC50: 12 nM
[9]
  HT1080 IL-6 release, scFv: % inhibition printed in the IC50 column (no IC50 reached): 70%
[14]
  IC50: 12 nM
